Test [1] deals with T1, HLA-A0201 on T2 cells (human).
T1 construct: MHC class I molecule on TAP-deficient T2 cells; also called HLA-A0201 antigen
Kind of test: T2 cell affinity test, 100 uM peptide, flow cytometry; FI=(MFI sample-MFI background)/MFI background. A general note: Flow cytometry measures light scatter and fluorescence of single cells or particles in a stream.
Experimental: (§1) 2 duplicate wells per group were used. […] The cells were collected by centrifugation at 200 g for 5 minutes. […] The mean fluorescence intensity (MFI) was then detected and analyzed by flow cytometry (BD FACSJazz™) and its software, as shown in FIG. 1.

Test [2] addresses T1, HLA-A0201 on T2 cells. The experiment in a line: T2 cell affinity test, 100 uM peptide overnight with human b2m, anti-HLA-A0201 FITC staining, flow cytometry.
Experimental: as §1

Regarding KLMGIVNKV [wild-type polypeptide KLMGIVNKV (SEQ ID NO: 6)], in test [1], the “FI (fluorescence index)” value is 1.89. In addition, the MFI in test [2] worked out at 648.

B1: KLMGIVYKL polypeptide (SEQ ID NO: 4) (peptide)
peptide: KLMGIVYKL
notes: Synthetic 9-mer; also called mutated polypeptide
In the case of B1, the “FI (fluorescence index)” value in test [1] turned out to be 2.23. In test [2], this molecule showed an MFI of 724.

B2: KLMGIVYKV polypeptide (SEQ ID NO: 2) (peptide)
peptide: KLMGIVYKV
notes: Synthetic 9-mer made by solid phase synthesis; It is the fragment of the mutated (N136Y) Twist neighbor protein; also called mutated polypeptide
Regarding B2, the “FI (fluorescence index)” value in test [1] came to 1.97. Moreover, in test [2], the MFI was determined as 666.

B3: KMMGIVYKL polypeptide (SEQ ID NO: 5) (peptide)
peptide: KMMGIVYKL
notes: as for B1
Turning to B3, the “FI (fluorescence index)” value in test [1] came out at 2.09. Besides, the MFI in test [2] worked out at 692.

The values above are taken from patent US20220033438A1 (GENOIMMUNE THERAPEUTICS, published 2022).
